We go through 41 sequences from the nanobody polyreactivity screen of Harvey et al. (2022).

The nature of this series: yeast display, Sf9 membrane polyspecificity reagent, FACS + sequencing; frameworks hold sequencing errors. The gist of the method:
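In a synthetic yeast display library (Saccharomyces cerevisiae BJ5465), nanobody expression was induced with galactose for 36–48 hours. FACS gates were set low and high (top ~1%) using anti-HA fluorescence for expression and streptavidin fluorescence for binding of the Sf9 membrane reagent. Each polyreactivity label is drawn from the gate of origin.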
For the sequence “QVQIVESGGGLVQAGGSLRLSCGASGRIFYNYALGWYRQAPGKERELVAAISGSGGSTYYADSVKGRFTISRDNAKNTVYLQMNSLKPEDTAVYYCSTSGPQYYSRNFDYWGQGTQVTVSS”, the “polyreactivity (PSR sort gate)” value is “low polyreactivity”.

Take “QVQLVESGGGLVQAGGSLRLSCAASGITFAYYAMGWYRQAPGKERELVAAISSTGSSTYYADSVKGRFTISRDNAKNTVYLQMNSLKPEDTAVYYCNKLQQYTLSEYWGQGTQVTVSS”: the “polyreactivity (PSR sort gate)” value is recorded as “high polyreactivity”.

In the case of “QVQLVESGGGLVQAGGSLRLSCAASGSTFYANAMGWYRQAPGKERELVAAIDWSGATTYYADSVKGRFTISRDTAKNTVYLQMNSLKPEDTAVYYCAAYRYRPHVHRYYRYDYWGQGTQVTVSS”, the “polyreactivity (PSR sort gate)” value is reported as “high polyreactivity”.

“QVQLVESGGGLVQAGGSLRLSCAASGRTFYFNAMGWYRQAPGKERELVATITRRGGSTSYADSVKGRFTISRDNAKNTVYLQMNSLKPEDTAVYYCGNVSPPKFPERFDYWGQGTQVTVSS”: the “polyreactivity (PSR sort gate)” value is given as “low polyreactivity”.

Take “QVQLVESGGGLVQAGGSLRISCAASGFTLEPNTMGWYRQAPWKERELVAGISWSGGSTYYADSVKGRFTISRDNAKNTVYLQMNSLKPEDTAVYYCNAPPVRRSIVYDRRDYWGQGTQVTVSS”: the “polyreactivity (PSR sort gate)” value is listed as “low polyreactivity”.

On to “QVQLVESGGGLVQAGGSLRLSCAASGSTFVSYTMGWYRQAPGKERELVAAISYNGARTYYADSVKGRFTISRDNAKNTVYLQMISLKPEDTAVYDCARRYYSQYDYWGQGTQVTVSS”, for which the “polyreactivity (PSR sort gate)” value is “high polyreactivity”.

Turning to “QVQHVESGGGLVQAGGSLRLSCAASGRIFRYNAMGWYRQAPGKERELVAAITNGGSTNYADSVKGRFTISRDNAKNTVYLQMNSLKPEDTAVYYCNAQGRRYSQRYYYWGQGTQVTVSS”, the “polyreactivity (PSR sort gate)” value is reported as “high polyreactivity”.

Consider “QVQLVESGGGLVQAGGSLRLSCAASGSIFSYYAMGWSRQAPGKERELVATISWSGGSTYYADSVKGRFTISRDNAKNTVYLQMNSLKPEDTAVYYCAARIWTGRGRKLGYGYDYWGQGTQVTVSS”, for which the “polyreactivity (PSR sort gate)” value is listed as “low polyreactivity”.

In the case of “QVQLVESGGVLVQAGRSLRLSCAASGSPFRIYAMGWYRQAPGKERELVAAISSGGRTNYADSVKGRFTISRDNAKNTVYLQMNSLKPEDTAVYYCATVGYSSSTSGNRYGRAYYYWGQGTQVTVSS”, the “polyreactivity (PSR sort gate)” value was “high polyreactivity”.

On to “QVQLVESGGGLVQAGGSLRLSCAASGSIFIDNAMGWYIQAPGKEREFVAAISKSGTSTYYADSVNGRFTISRDNAMNAVDLQMNSLKPEDTAVYYCAVRRPRPYSNYYYWGQGTQVTVSS”, for which the “polyreactivity (PSR sort gate)” value is given as “high polyreactivity”.

“QVQLVESGGGLVQAGGSLRLSCAASGITFRVYVMGWYRQAPGKERELVAAITSGTSTYYADSVKGRITISRDNAKNTVYLQMNRLKPEDTAVYYCAALIFYGDYIEYDYWGQGTQVTVSS”: the “polyreactivity (PSR sort gate)” value is listed as “low polyreactivity”.

As to “QVQLEDSGGGLVQAGGTLRLSCAASGIIFAYNYMGWNRHATRKERELVATISSAGNTNYADSVKGRFTISRDNAKNTVYLQMNSLKPEETAVYYCAAEFFIVVTDEYDYWGQGTQVTVSS”, the “polyreactivity (PSR sort gate)” value is “low polyreactivity”.

For the sequence “QVQLVESGGGLVQAGGSLRLSCAASGSTFPYNAMGWYRPAPGKERELVAAITAGGARTYYADSVKGRFTISRDNAKNTVYLQMNSLKPEDTAVYYCNKVKATSYRYYYWGQGTQVTVSS”, the “polyreactivity (PSR sort gate)” value is given as “high polyreactivity”.

With “QDQLVESGGGLVQAGGSLRLSCAASGSIFYVNTMGWYRQAHGKERELVADISSGDSTYYADSVKGRFTISRDNAKNTVYLQMNSLKPEDTAVYYCIADVYSWVSGKEGDYWGQGTQVTVSS”, the “polyreactivity (PSR sort gate)” value was “low polyreactivity”.

As to “QVQLVESGGGLVQAGGSLRLSSAASGITYTPNAMGSYRQAPGKEREFVAAISVSGGSTYYADSVKGRFTISRDNAKYTVYLQMNSLKPEDTAVYYCATDFRRYAAKLYRYYYWGLGTQVTVSS”, the “polyreactivity (PSR sort gate)” value is recorded as “high polyreactivity”.

For “QVQRVESGGGLVQAGGSLRLSCAASGITFKSYTMGWYRPAPGKERELVAANTASGGTTRYADSVKGRFTISRDNAKKTVYLQMNSLKPEDTAVYYCNALPFRYGKRRGYWGQGTQVTVSS”, the “polyreactivity (PSR sort gate)” value is listed as “low polyreactivity”.

As for “QVQLVESGGGLVQAGGSLRLSCAASGFIFQYNAMGWYRQAPGKERELVAAITSRGGSTYYADSVKGRFTISRDNAKNTVFLQMNSLKPEDTAVYYCATRRSYLADYWGQGTQVTVSS”, the “polyreactivity (PSR sort gate)” value was “high polyreactivity”.

In the case of “QVQLVESGGALDQAGGSLRLSCAASGRIFKWYAKGWYRQAPGKERELVATISWSGGSTYYADSVKGRFTISRDNAKKTVYLQMNSLKPEDTAVYYCNADTWLALPGFDYWGQGTQVTVSS”, the “polyreactivity (PSR sort gate)” value is “high polyreactivity”.

As for “QVQLVESGGGLVQAGGSLRLSCAASGFTFPDYAMGWYRQAPGKERELVAAITSSGGSTYYADSVKGRFTISRDNAKNTVYLQMNSLKPEDTAVYYCNAYISDDRYWSPAIEEDYWGQGTQVTVSS”, the “polyreactivity (PSR sort gate)” value is “high polyreactivity”.

In the case of “QVKHVESVGRLVQAGGSLRLSSASSGRIFRSYAMGCYRQAPGKESEYVAAISRSGGRTYYADSVKGRFTISRDNAKNTVYLQMNSLKPEDSAVYYCAVVDYHVHSSDYNYWGQGTQVTVSS”, the “polyreactivity (PSR sort gate)” value is “high polyreactivity”.

With “QVHLVESGGGLVHAGGSLRLSCAASGRSFTFYDMGWYRQAPGKERELVAAITQDSGSSTYYADSVKGRFTISRDNAKNTVYLQMNSLKPEDTAVYYCNADYPGFSSQNDYWGQGTHVTVSS”, the “polyreactivity (PSR sort gate)” value was “low polyreactivity”.

With “QVQLVESGGGLVQAGGSLRLSCAASGRTSVVHAMGWYRQAPGKERELVAAITSGGSTHYADSVKGRFTISRDNAKNTVYLQMNSLKPEDTAVYSCNARDRRRTNLLDYWGQGTQVTVSS”, the “polyreactivity (PSR sort gate)” value was “low polyreactivity”.

Regarding “QGQHVESGGGLVQAGGSLRLSCAASGRIFVPYAMGWYRQAPGKERELVAAITWRGGSPYYADSVKGRFTLSRDNAKNTVYLQMNSLKPVDTAVYYCNAAEASPWFWFSHLQVGMDYWGQGTQVTVSW”, the “polyreactivity (PSR sort gate)” value is “low polyreactivity”.

For the sequence “QVQLVESGGGLVQAGGSLRLSCAASGSIFVYNAMGWYRQAPGKERELVAAIDTVGSTNYADSVKGRFTISRDNAKNTVYLQMNSVKPVDPAVYYCAVVTPYWSFYEQVIPSNYWGQGTQVTVSS”, the “polyreactivity (PSR sort gate)” value is on record as “low polyreactivity”.

In the case of “QVQLVESGGGLVQAGGSLRLSCAASGITFDENTMGWYRQAPGKERELVAAITEIGGSTYYADSVKGRFTISRDNAKNTVYLQMNSLKPEDTAVYYCNAARWVVRFVDYEYWGQGTQVTVSS”, the “polyreactivity (PSR sort gate)” value is listed as “low polyreactivity”.

In the case of “QVQLVESGGGLVQAGGSLRLSCAASGSIFCQYVMGWYRQAPGKERVLVAAISWSGPRTYYADSVKGRFTISRDNAKNTVDLQMNSLKPEDTAVYYCAARRLYAGHQYDYWGQGTQVTVSS”, the “polyreactivity (PSR sort gate)” value was “high polyreactivity”.

Take “QVQLVESGGGLVQAGGSLRLSCAASGRILVPYAMGWYRQAPGKERELVAAINPRGGRTYYADSVKGRFTISRDNAKYTVYLQMNSLKPEDTAVYYCNALAHQYHRYEFGYWGQGTQVTVSS”: the “polyreactivity (PSR sort gate)” value is recorded as “low polyreactivity”.

Take “QVQLVESGGGLVQAGGSLRLSCAASGSIFQFYTMGWYRQAPGKERELVAAISSTGSTNYADSVKGRFTISRDNAKNTVYLQMNSLKPEDTAVYYCAAVGTYLAGYQFDYWGQGTQVTVSS”: the “polyreactivity (PSR sort gate)” value was “low polyreactivity”.

In the case of “QVQLVESGGGLVQAGGSLRLSCAASGSIFDRYGMGWYRQAPGKERELVADITSDGSTNYADSVKGRFTISRDNAKNTVYLQMNSLKPEDTAVYYCAVSYTAYSVGYDYWGQGTQVTVSS”, the “polyreactivity (PSR sort gate)” value was “low polyreactivity”.

“QVQLVESGGGLVQAGGSLRLSCAASGTFYKYAMGWYRQAPGKERELVAAISWRGGRTYADSVKGRFTISRDNAKNTVYLQMNSLKPEDTAVYYCNKRFYPEHYYWGQGTQVTVSS”: the “polyreactivity (PSR sort gate)” value is recorded as “high polyreactivity”.

Turning to “QVQLVESGGGLVQAGGSLRLSCAASGRIFVRYAMGWSRQAPGKEREMVAAISSSGGRTYYADSVKGRFTISRDNAKNTVYLQMNSLNAEDTAVYYCAARWVQYGVRYDYWGQGTQVTVSS”, the “polyreactivity (PSR sort gate)” value is reported as “high polyreactivity”.

For “QVQLVESGGGLVQAGGSLRLSCAASGSTFAQNVMGWYRQAPGKERELVAAITSSGSTNYADSVKGRFTISRDNAKNTVYLQMNILKPEDTAVFYCAKDVLAPYSRHDYWGQGTQVTVSS”, the “polyreactivity (PSR sort gate)” value was “low polyreactivity”.

Regarding “QVQLVESGGGLVQAGGSLRLSCAASGYIFFGNAMGWYRQAPGKERELVAAIRRRGTSTYYADSVKGRFTISRDNAKNTVYLQMNSLKPEDTAVYYCAADVVRSNFYGTFLYDYDYCGQGTQVTVSS”, the “polyreactivity (PSR sort gate)” value is “low polyreactivity”.

Consider “QVQLVESGGGLVQAGGSLRLSCDASASILRENAMGWYRQAPGKERELVAVITRGGNTYYADSVKGRFTISRDNAKNTVYLQMNSLKPEDTAVYYCAAKRRERYGQTYGYWGQGTQVTVSS”, for which the “polyreactivity (PSR sort gate)” value is “high polyreactivity”.

Turning to “QVQLVESGGGLVQAGGSLRLSCAASGRTLGDYDMGSYRQAPGKERELVAAINWSGGDTYYADSVKGRFTISRDNANNTVYLQMNSLKPEDSAVYYCNADYVYTRYDYWGQGTQVTVSS”, the “polyreactivity (PSR sort gate)” value was “high polyreactivity”.

In the case of “QVQLVESGGGLVQAGGSLRLSCAASGRIFHVYVMGWYRPAPGKERELVAAITWRGGRTYYADSVKGRFTISRDNAKNTVYLQMNSLKPEDTAVYYCKAVAYWYDYQYDYWGQGTQVTVSS”, the “polyreactivity (PSR sort gate)” value is reported as “high polyreactivity”.

As for “QVQLVESGGGLVQAGGRLRLSCAASGIIFTPYAMGRYRQAPGKERELVAAISWIGGRTYYADSVKGRFTISRDKAKNTVYLQMNSLKPEDTAVYYCAASYRAWSGNYWGQGTQVTVSS”, the “polyreactivity (PSR sort gate)” value is “high polyreactivity”.

Take “QVQLVESCGGLVQAGGSLRLSCAASGYTFSFNAMGWYRQAPGKESELVADINLSGGYTYYADSVKGRFTISRDNAKNTVYLQINSLKPEDTAVYYCAADLYDYWTEGYAFLFEYWGQGTQVTVSS”: the “polyreactivity (PSR sort gate)” value is “low polyreactivity”.

In the case of “QVQLVDSGGDLVKAGGSLRLSCDASGSTFRDYDMGWYRQAPGKERELVDAITGSGSSTYYADSVKGRFTISRDNAKNTVYLQMNSLKPEDTAVYYCAATWVVSYRVYRSYYWGQGTQVTVSS”, the “polyreactivity (PSR sort gate)” value is given as “low polyreactivity”.

In the case of “QVQLQERGGGLVQAGASLRQSCAASGTIFTARFMGWYRQAPGKERELVATITDGGNTNDADSVKGRFTSSRDNAKITVYLQMNSLKPEYAAVYYCAAGEVDNDTLLYWGQGSQVTVSS”, the “polyreactivity (PSR sort gate)” value is listed as “low polyreactivity”.

Take “QVQLVESGGGLVQEGGSLRLRWAASGFIFDTYAMGWYRQAPGKERELVAGISDGGSTYYADSVKGRFTISRDNAKNTVYLQLNSLKPEDTAVYYCAAQGEYGFTAYYPGVSWGQGTQVTLSS”: the “polyreactivity (PSR sort gate)” value is “low polyreactivity”.
